Experimental data from paper PMC6486591, “Cryo-EM structures of the pore-forming A subunit from the Yersinia entomophaga ABC toxin” (Nature Communications, 2019).

Tests used:
[1] = molecular target: T1, YenA1 (Yersinia entomophaga, UniProt B6A877 1-1164); experiment: cryo-EM structure; YenTcA soluble pre-pore form, single-particle cryo-EM, 4.4 Å average resolution, C5 symmetry; 0.1 mg/mL in 25 mM Tris, 150 mM NaCl, pH 7.5, with 10 mM NDSB-195; conditions: both partners purified
T1 construct: YenA1, TcA-like protein of Yersinia entomophaga (130 kDa), subunit of YenTcA; residues 45-304 and 584-1164 are resolved in the alpha-helical shell, residues 305-583 are an unmodelled domain insertion; Natively expressed, no fusion tags; Five copies stand in the YenTcA complex; also called TcA-like protein YenA1

[2] = molecular target: T2, YenA2 (Yersinia entomophaga, UniProt B6A878 1-1364); experiment: as above; conditions: both partners purified
T2 construct: YenA2, TcA-like protein of Yersinia entomophaga (156 kDa), subunit of YenTcA; UniProt entry name B6A878_9GAMM is printed; holds the shell domain (1-165; 559-812), neuraminidase-like domain (166-332; Natively expressed, no fusion tags; Five copies stand in the YenTcA complex and form the pentameric pore; also called TcA-like protein YenA2
T2 sequence (B6A878 whole entry, the tested form may be a part): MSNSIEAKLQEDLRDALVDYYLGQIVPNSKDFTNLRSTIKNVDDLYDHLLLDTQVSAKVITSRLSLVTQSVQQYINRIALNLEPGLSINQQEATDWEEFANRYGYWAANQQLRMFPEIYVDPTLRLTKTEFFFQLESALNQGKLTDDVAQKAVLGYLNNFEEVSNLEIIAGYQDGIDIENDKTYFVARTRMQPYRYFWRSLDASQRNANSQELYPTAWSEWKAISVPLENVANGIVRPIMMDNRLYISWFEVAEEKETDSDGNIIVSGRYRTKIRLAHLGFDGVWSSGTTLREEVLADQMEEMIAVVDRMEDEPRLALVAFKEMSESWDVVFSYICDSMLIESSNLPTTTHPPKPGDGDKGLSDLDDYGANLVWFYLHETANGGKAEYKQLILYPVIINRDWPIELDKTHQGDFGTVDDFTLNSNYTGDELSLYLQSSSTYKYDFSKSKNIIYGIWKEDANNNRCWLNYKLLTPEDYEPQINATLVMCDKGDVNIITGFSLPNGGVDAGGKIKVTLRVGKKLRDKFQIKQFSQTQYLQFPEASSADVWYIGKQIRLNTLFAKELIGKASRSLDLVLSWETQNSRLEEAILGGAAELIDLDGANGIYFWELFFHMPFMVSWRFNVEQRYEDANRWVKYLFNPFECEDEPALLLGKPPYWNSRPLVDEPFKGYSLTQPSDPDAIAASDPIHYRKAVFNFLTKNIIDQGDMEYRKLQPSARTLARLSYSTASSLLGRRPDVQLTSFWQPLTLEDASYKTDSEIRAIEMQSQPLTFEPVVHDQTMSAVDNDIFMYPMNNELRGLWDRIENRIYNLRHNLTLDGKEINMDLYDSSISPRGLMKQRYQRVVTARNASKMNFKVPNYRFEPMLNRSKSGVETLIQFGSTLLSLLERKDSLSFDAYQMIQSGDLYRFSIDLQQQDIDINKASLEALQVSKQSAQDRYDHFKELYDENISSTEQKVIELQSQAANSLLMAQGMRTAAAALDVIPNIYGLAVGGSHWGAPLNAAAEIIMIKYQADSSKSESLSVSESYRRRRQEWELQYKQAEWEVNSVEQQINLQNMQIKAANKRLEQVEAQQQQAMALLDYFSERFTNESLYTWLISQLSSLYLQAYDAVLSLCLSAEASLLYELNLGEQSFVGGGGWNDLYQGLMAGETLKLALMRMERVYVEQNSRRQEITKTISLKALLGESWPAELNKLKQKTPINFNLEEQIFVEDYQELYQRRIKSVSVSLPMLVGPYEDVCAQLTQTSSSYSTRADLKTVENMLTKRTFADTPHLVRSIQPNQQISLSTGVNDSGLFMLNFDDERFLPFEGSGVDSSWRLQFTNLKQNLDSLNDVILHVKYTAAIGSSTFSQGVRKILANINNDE

T1 sequence (B6A877 whole entry, the tested form may be a part): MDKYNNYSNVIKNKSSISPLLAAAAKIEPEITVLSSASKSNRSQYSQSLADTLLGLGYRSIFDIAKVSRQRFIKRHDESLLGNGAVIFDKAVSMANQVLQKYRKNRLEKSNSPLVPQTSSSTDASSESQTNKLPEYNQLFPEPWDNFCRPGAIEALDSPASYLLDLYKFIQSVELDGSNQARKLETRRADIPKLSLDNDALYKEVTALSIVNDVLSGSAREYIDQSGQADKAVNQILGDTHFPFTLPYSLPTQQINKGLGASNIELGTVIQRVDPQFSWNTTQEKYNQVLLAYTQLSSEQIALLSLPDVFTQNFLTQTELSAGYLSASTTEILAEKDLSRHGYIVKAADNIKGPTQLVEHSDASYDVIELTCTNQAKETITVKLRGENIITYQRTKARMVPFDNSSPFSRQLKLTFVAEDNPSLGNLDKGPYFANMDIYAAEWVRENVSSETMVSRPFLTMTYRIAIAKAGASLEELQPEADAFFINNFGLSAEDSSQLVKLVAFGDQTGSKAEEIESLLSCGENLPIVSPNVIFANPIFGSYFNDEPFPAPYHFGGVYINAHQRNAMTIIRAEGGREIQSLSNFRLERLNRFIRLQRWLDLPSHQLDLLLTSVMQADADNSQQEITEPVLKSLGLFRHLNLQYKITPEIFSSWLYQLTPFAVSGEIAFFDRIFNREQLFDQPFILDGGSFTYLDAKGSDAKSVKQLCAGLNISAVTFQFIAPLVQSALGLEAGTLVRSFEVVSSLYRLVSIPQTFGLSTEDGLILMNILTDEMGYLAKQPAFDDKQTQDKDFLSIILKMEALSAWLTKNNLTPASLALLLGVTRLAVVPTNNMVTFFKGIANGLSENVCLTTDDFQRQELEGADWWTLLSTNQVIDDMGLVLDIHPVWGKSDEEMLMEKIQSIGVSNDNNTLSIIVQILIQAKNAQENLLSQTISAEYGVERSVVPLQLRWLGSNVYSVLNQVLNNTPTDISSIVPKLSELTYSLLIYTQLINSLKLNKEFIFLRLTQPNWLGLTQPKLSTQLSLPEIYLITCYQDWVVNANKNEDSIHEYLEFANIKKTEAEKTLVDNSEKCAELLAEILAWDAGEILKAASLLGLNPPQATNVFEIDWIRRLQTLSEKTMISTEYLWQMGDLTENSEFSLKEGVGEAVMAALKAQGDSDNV

| Binder | binding result [1] | binding result [2] |
| --- | --- | --- |
| Chi2 (enzyme, Chi2, endochitinase of Yersinia entomophaga, subunit of YenTcA; N-terminal domain residues 1-91 (unmodelled), chitinase domain residues 92-632 (earlier crystal structure PDB 4dws); Natively expressed, no fusion tags; Five copies stand in the YenTcA complex; also called endochitinase Chi2; Chi2 subunit) MVNKYTYTSSKAMSDISDVIGEPLAAWDSQVGGRVFNVIFDGKVYTNTYWVERWQVPGIGSSDGNPHNAWKFVRAATADEINKIGNPTTADVKPTENIPSPILVEDKYTEETYSRPDVNFKEDGSQGNLSYTATRVCAPMYNHYVGDKTKPKLSAYITDWCQYDARLDGGGSKEEERGRGFDLATLMQNPATYDRLIFSFLGICGDIGNKSKKVQEVWDGWNAQAPSLGLPQIGKGHIVPLDPYGDLGTARNVGLPPESADTSIESGTFLPYYQQNRAAGLLGGLRELQKKAHAMGHKLDLAFSIGGWSLSSYFSALAENPDERRVFVASVVDFFVRFPMFSCVDIDWEYPGGGGDEGNISSDKDGENYVLLIKELRSALDSRFGYSNRKEISIACSGVKAKLKKSNIDQLVANGLDNIYLMSYDFFGTIWADYIGHHTNLYSPKDPGEQELFDLSAEAAIDYLHNELGIPMEKIHLGYANYGRSAVGGDLTTRQYTKNGPALGTMENGAPEFFDIVKNYMDAEHSLSMGKNGFVLMTDTNADADFLFSEAKGHFISLDTPRTVKQKGEYAAKNKLGGVFSWSGDQDCGLLANAAREGLGYVADSNQETIDMGPLYNPGKEIYLKSISEIKSK | binds |  |
| Chi1 (enzyme, Chi1, endochitinase of Yersinia entomophaga, subunit of YenTcA; earlier crystal structure PDB 3oa5 was fitted as a rigid body; Natively expressed, no fusion tags; Five copies stand in YenTcA; Chi1 is not in the deposited atomic model 6ogd; also called endochitinase Chi1; Chi1 subunit) MEKEEKSNLIYDKDPGYVWDNKNECEGAAEETYQELNYEPSISADKLTWTPTRLAKTVFNTYEDDDDFNVLCYFTDWSQYDPRIINKEIRDTGGRSADILRLNTPDGRPFKRLIYSFGGLIGDKKYSADGNASIAVRLGVATDPDDAIANHKGKTIPVDPDGAVLASINCGFTKWEAGDANERYNQEKAKGLLGGFRLLHEADKELEFSLSIGGWSMSGLFSEIAKDEILRTNFVEGIKDFFQRFPMFSHLDIDWEYPGSIGAGNPNSPDDGANFAILIQQITDAKISNLKGISIASSADPAKIDAANIPALMDAGVTGINLMTYDFFTLGDGKLSHHTNIYRDPSDVYSKYSIDDAVTHLIDEKKVDPKAIFIGYAGYTRNAKNATITTSIPSEEALKGTYTDANQTLGSFEYSVLEWTDIICHYMDFEKGEGRNGYKLVHDKVAKADYLYSEATKVFISLDTPRSVRDKGRYVKDKGLGGLFIWSGDQDNGILTNAAHEGLKRRIKNKVIDMTPFYLDSDEELPTYTEPAEPQCEACNIK |  | binds |
